Here are results for six substances from patent US20210130436A1.

For one experiment, the target named is CD28 (human) (UniProt P10747). The experiment can be described thus: cell-based or functional assay.
In the next experiment the target is PD-L1 (human) (UniProt Q9NZQ7). Nature of the experiment: cell-based or functional assay.
PD-L1 (human), sequence (Q9NZQ7 19-290): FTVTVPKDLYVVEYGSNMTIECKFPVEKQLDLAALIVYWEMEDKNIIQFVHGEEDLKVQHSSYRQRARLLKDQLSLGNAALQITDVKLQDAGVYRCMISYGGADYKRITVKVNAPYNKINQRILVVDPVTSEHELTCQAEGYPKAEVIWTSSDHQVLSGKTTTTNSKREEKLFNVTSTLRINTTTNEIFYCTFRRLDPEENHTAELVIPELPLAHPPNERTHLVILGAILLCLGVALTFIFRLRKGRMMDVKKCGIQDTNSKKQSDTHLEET

“variant CD80 IgV-Fc (inert) E23G/A26S/E35D/T62N/A71D/L72V/L85M (Fc fusion)”: in the experiment with CD28 (human), the IL-2-luciferase RLU, Jurkat + CHO/OKT3/PD-L1 aAPC, 0.6 nM amounted to 524 RLU; the IL-2-luciferase RLU, Jurkat + CHO/OKT3/PD-L1 aAPC, 5.6 nM was 659 RLU; the IL-2-luciferase RLU, Jurkat + CHO/OKT3/PD-L1 aAPC, 16.7 nM was 689 RLU; the IL-2-luciferase RLU, Jurkat + CHO/OKT3/PD-L1 aAPC, 50 nM amounted to 695 RLU. Further, in the experiment with CD28 (human), the IL-2-luciferase RLU, Jurkat + CHO/OKT3 aAPC (no PD-L1), 5.6 nM worked out at 566 RLU; the IL-2-luciferase RLU, Jurkat + CHO/OKT3 aAPC (no PD-L1), 16.7 nM was 560 RLU; the IL-2-luciferase RLU, Jurkat + CHO/OKT3 aAPC (no PD-L1), 50 nM was 606 RLU. In the experiment with PD-L1 (human), the IL-2 release, primary T cells; K562/OKT3/PD-L1; 100 nM was 102.

On to “variant CD80 IgV-Fc (inert) E35D (Fc fusion)”, for which, in the experiment with CD28 (human), the IL-2-luciferase RLU, Jurkat + CHO/OKT3/PD-L1 aAPC, 0.6 nM stood at 456 RLU; the IL-2-luciferase RLU, Jurkat + CHO/OKT3/PD-L1 aAPC, 1.9 nM came out at 465 RLU; the IL-2-luciferase RLU, Jurkat + CHO/OKT3/PD-L1 aAPC, 5.6 nM was 625 RLU; the IL-2-luciferase RLU, Jurkat + CHO/OKT3/PD-L1 aAPC, 16.7 nM amounted to 995 RLU. Besides, in the experiment with CD28 (human), the IL-2-luciferase RLU, Jurkat + CHO/OKT3/PD-L1 aAPC, 50 nM came out at 1610 RLU; the IL-2-luciferase RLU, Jurkat + CHO/OKT3 aAPC (no PD-L1), 5.6 nM turned out to be 412 RLU; the IL-2-luciferase RLU, Jurkat + CHO/OKT3 aAPC (no PD-L1), 16.7 nM amounted to 480 RLU; the IL-2-luciferase RLU, Jurkat + CHO/OKT3 aAPC (no PD-L1), 50 nM came to 448 RLU. Further, in the experiment with PD-L1 (human), the IL-2 release, primary T cells; K562/OKT3/PD-L1; 10 nM was found to be 210 and the IL-2 release, primary T cells; K562/OKT3/PD-L1; 100 nM stood at 2740.

Take “variant CD80 IgV-Fc (inert) E35D/D46V/L85Q (Fc fusion)”: in the experiment with CD28 (human), the IL-2-luciferase RLU, Jurkat + CHO/OKT3/PD-L1 aAPC, 0.6 nM was determined as 611 RLU; the IL-2-luciferase RLU, Jurkat + CHO/OKT3/PD-L1 aAPC, 1.9 nM came to 1000 RLU; the IL-2-luciferase RLU, Jurkat + CHO/OKT3/PD-L1 aAPC, 5.6 nM came out at 1490 RLU; the IL-2-luciferase RLU, Jurkat + CHO/OKT3 aAPC (no PD-L1), 5.6 nM worked out at 511 RLU. In the experiment with CD28 (human), the IL-2-luciferase RLU, Jurkat + CHO/OKT3 aAPC (no PD-L1), 16.7 nM was 554 RLU and the IL-2-luciferase RLU, Jurkat + CHO/OKT3 aAPC (no PD-L1), 50 nM was determined as 720 RLU. Further, in the experiment with PD-L1 (human), the IL-2 release, primary T cells; K562/OKT3/PD-L1; 10 nM came out at 102 and the IL-2 release, primary T cells; K562/OKT3/PD-L1; 100 nM was 1430.

On to “variant CD80 IgV-Fc (inert) E35D/M43L/L70M (Fc fusion)”, for which, in the experiment with CD28 (human), the IL-2-luciferase RLU, Jurkat + CHO/OKT3/PD-L1 aAPC, 0.6 nM stood at 479 RLU; the IL-2-luciferase RLU, Jurkat + CHO/OKT3/PD-L1 aAPC, 1.9 nM turned out to be 525 RLU; the IL-2-luciferase RLU, Jurkat + CHO/OKT3/PD-L1 aAPC, 5.6 nM came to 683 RLU; the IL-2-luciferase RLU, Jurkat + CHO/OKT3/PD-L1 aAPC, 16.7 nM amounted to 1070 RLU. In addition, in the experiment with CD28 (human), the IL-2-luciferase RLU, Jurkat + CHO/OKT3 aAPC (no PD-L1), 5.6 nM stood at 396 RLU; the IL-2-luciferase RLU, Jurkat + CHO/OKT3 aAPC (no PD-L1), 16.7 nM turned out to be 439 RLU; the IL-2-luciferase RLU, Jurkat + CHO/OKT3 aAPC (no PD-L1), 50 nM is 515 RLU. Further, in the experiment with PD-L1 (human), the IL-2 release, primary T cells; K562/OKT3/PD-L1; 10 nM was 52.

Turning to “variant CD80 IgV-Fc (inert) E35D/M47I (Fc fusion)”, in the experiment with CD28 (human), the IL-2-luciferase RLU, Jurkat + CHO/OKT3/PD-L1 aAPC, 0.6 nM turned out to be 1050 RLU; the IL-2-luciferase RLU, Jurkat + CHO/OKT3/PD-L1 aAPC, 1.9 nM came out at 1730 RLU; the IL-2-luciferase RLU, Jurkat + CHO/OKT3/PD-L1 aAPC, 5.6 nM is 2790 RLU; the IL-2-luciferase RLU, Jurkat + CHO/OKT3/PD-L1 aAPC, 16.7 nM is 3670 RLU. In the experiment with CD28 (human), the IL-2-luciferase RLU, Jurkat + CHO/OKT3/PD-L1 aAPC, 50 nM is 3780 RLU; the IL-2-luciferase RLU, Jurkat + CHO/OKT3 aAPC (no PD-L1), 5.6 nM amounted to 637 RLU; the IL-2-luciferase RLU, Jurkat + CHO/OKT3 aAPC (no PD-L1), 16.7 nM was 710 RLU; the IL-2-luciferase RLU, Jurkat + CHO/OKT3 aAPC (no PD-L1), 50 nM amounted to 894 RLU. In the experiment with PD-L1 (human), this substance registered an IL-2 release, primary T cells; K562/OKT3/PD-L1; 1 nM of 244; an IL-2 release, primary T cells; K562/OKT3/PD-L1; 10 nM of 3430; an IL-2 release, primary T cells; K562/OKT3/PD-L1; 100 nM of 8310.

For “variant CD80 IgV-Fc (inert) E35D/M47I/L70M (Fc fusion)”, in the experiment with CD28 (human), the IL-2-luciferase RLU, Jurkat + CHO/OKT3/PD-L1 aAPC, 0.6 nM was 1000 RLU; the IL-2-luciferase RLU, Jurkat + CHO/OKT3/PD-L1 aAPC, 1.9 nM turned out to be 1640 RLU; the IL-2-luciferase RLU, Jurkat + CHO/OKT3/PD-L1 aAPC, 5.6 nM was 2350 RLU; the IL-2-luciferase RLU, Jurkat + CHO/OKT3/PD-L1 aAPC, 16.7 nM was found to be 2630 RLU. In the experiment with CD28 (human), the IL-2-luciferase RLU, Jurkat + CHO/OKT3/PD-L1 aAPC, 50 nM worked out at 2630 RLU; the IL-2-luciferase RLU, Jurkat + CHO/OKT3 aAPC (no PD-L1), 5.6 nM came out at 549 RLU; the IL-2-luciferase RLU, Jurkat + CHO/OKT3 aAPC (no PD-L1), 16.7 nM was found to be 544 RLU; the IL-2-luciferase RLU, Jurkat + CHO/OKT3 aAPC (no PD-L1), 50 nM amounted to 600 RLU. In the experiment with PD-L1 (human), this substance registered an IL-2 release, primary T cells; K562/OKT3/PD-L1; 1 nM of 311; an IL-2 release, primary T cells; K562/OKT3/PD-L1; 10 nM of 6980; an IL-2 release, primary T cells; K562/OKT3/PD-L1; 100 nM of 8390.
